Experimental data published in PMC5665528, “Characterization of the deubiquitination activity and substrate specificity of the chicken ubiquitin-specific protease 1/USP associated factor 1 complex” (PLoS ONE, 2017).

Molecular target: T1, chicken ubiquitin-specific protease 1, chUSP1^GG680,681AA double mutant (full-length control) (chicken, UniProt F1NPR3 1-794, G680A | G681A)
T1 sequence (looked up): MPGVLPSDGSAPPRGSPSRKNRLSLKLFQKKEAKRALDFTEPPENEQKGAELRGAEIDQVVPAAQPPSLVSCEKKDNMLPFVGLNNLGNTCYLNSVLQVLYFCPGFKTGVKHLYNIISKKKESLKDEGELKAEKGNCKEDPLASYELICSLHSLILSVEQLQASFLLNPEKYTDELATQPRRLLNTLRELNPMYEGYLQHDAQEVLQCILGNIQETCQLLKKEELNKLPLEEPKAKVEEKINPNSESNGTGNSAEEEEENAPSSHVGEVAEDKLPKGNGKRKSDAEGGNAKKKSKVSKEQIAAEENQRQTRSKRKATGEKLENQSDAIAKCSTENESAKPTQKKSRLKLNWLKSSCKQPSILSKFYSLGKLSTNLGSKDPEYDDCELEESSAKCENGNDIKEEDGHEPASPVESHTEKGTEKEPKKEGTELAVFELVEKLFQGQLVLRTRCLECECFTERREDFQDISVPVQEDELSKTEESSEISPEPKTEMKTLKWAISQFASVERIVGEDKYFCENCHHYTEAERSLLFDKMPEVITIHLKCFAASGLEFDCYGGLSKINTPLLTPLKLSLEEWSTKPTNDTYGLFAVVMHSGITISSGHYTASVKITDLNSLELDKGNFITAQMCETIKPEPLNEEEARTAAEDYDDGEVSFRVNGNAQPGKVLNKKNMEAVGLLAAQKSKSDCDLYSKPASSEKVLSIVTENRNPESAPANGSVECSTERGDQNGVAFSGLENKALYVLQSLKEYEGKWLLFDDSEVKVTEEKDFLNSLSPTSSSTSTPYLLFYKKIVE
Test: cell-based or functional assay

B1: chicken USP associated factor 1, untagged (natural protein)
chain: not shown
- KM of chUSP1^FL (hydrolysis of Ub-AMC) in the presence of chUAF1 against chUSP1^FL alone, fold decrease: 2.87 fold
- deubiquitination activity (kcat/KM, hydrolysis of Ub-AMC) of chUSP1^FL/chUAF1 against chUSP1^FL alone: 54 fold
- deubiquitination activity of 125 nM chUSP1^FL (AMC fluorescence from 100 nM Ub-AMC) three minutes after the addition of 125 nM chUAF1, against the control without chUAF1: > 2 fold
- kcat of chUSP1^FL (hydrolysis of Ub-AMC) in the presence of chUAF1 against chUSP1^FL alone: 21 fold
